# Target: Arabidopsis thaliana NAP1-related protein 1 (NRP1) (A. thaliana) (UniProt Q9CA59)
# Assay: ITC
# Sequence of Arabidopsis thaliana NAP1-related protein 1 (NRP1) (A. thaliana) (Q9CA59 whole entry): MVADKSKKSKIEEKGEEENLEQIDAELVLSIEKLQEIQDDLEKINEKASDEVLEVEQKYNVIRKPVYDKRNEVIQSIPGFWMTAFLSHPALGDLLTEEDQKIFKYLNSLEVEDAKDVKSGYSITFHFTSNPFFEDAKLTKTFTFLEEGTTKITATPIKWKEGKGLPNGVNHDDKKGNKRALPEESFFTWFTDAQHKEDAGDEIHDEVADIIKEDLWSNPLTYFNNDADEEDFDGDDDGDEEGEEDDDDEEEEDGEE
Kd,dH,Substance
5000 nM,–,Arabidopsis thaliana cytochrome c (from UniProt Q9T0G2 1-112) (natural protein)
100 nM,–,Chicken erythrocyte H2A–H2B histone dimer (from UniProt P02263 1-129; P0C1H3 1-126) (complex)
–,-10.4 kcal/mol,Xenopus laevis core histone H4 (from UniProt P62799 1-103) (natural protein)

# From article PMC5389710
